In patent US20150232507A1:

Tests used:
Experiment in all cases: cell-based or functional assay
[1] = target: C-terminal domain of G1 cloned directly to Trx whose first amino acid is Asn (E. coli)
[2] = target: C-terminal domain of G1 cloned directly to Trx whose first amino acid is Asp (E. coli)
[3] = target: C-terminal domain of G1 cloned directly to Trx whose first amino acid is Ile (E. coli)
[4] = target: C-terminal domain of G1 cloned directly to Trx whose first amino acid is Val (E. coli)
[5] = target: C-terminal domain of G1 cloned directly to Trx whose first amino acid is Tyr (E. coli)
[6] = target: C-terminal domain of G1 cloned directly to Trx whose first amino acid is Gln (E. coli)
[7] = target: C-terminal domain of G1 cloned directly to Trx whose first amino acid is Pro (E. coli)
[8] = target: C-terminal domain of G1 cloned directly to Trx whose first amino acid is Ser (E. coli)
[9] = target: C-terminal domain of G1 cloned directly to Trx whose first amino acid is Met (E. coli)
[10] = target: C-terminal domain of G1 cloned directly to Trx whose first amino acid is Thr (E. coli)
[11] = target: C-terminal domain of G1 cloned directly to Trx whose first amino acid is Cys (E. coli)
[12] = target: C-terminal domain of G1 cloned directly to Trx whose first amino acid is Phe (E. coli)
[13] = target: C-terminal domain of G1 cloned directly to Trx whose first amino acid is His (E. coli)
[14] = target: C-terminal domain of G1 cloned directly to Trx whose first amino acid is Arg (E. coli)
[15] = target: C-terminal domain of G1 cloned directly to Trx whose first amino acid is Lys (E. coli)
[16] = target: C-terminal domain of G1 cloned directly to Trx whose first amino acid is Trp (E. coli)
[17] = target: C-terminal domain of G1 cloned directly to Trx whose first amino acid is Glu (E. coli)
[18] = target: C-terminal domain of G1 cloned directly to Trx whose first amino acid is Leu (E. coli)
[19] = target: C-terminal domain of G1 cloned directly to Trx whose first amino acid is Ala (E. coli)
[20] = target: C-terminal domain of G1 cloned directly to Trx whose first amino acid is Gly (E. coli)

B1: G1^N(C1A): StreptagII-gpD-linker[N-extein]-Gp41.1^N(C1A)-GGHHHHHH fusion protein (protein)
chain: MASWSHPQFEKASKETFTHYQPQGNSDPAHTATAPGGLSAKAPAMTPLMLDTSSRKLVAWDGTTDGAAVGILAVAADQTSTTLTFYKSGTFRYEDVLWPEAASDETKKRTAFAGTAISIVGSTRSGYALDLKTQVQTPQGMKEISNIQVGDLVLSNTGYNEVLNVFPKSKKKSYKITLEDGKEIICSEEHLFPTQTGEMNISGGLKEGMCLYVKEGGHHHHHH
[1]
  C-terminal Cleavage Yield (%): 71.2%
  C-terminal Cleavage k: 0.000287 s⁻¹
  C-terminal Cleavage t(½): 40.3 min
[2]
  C-terminal Cleavage Yield (%): 68.6%
  C-terminal Cleavage k: 0.000247 s⁻¹
  C-terminal Cleavage t(½): 46.8 min
[3]
  C-terminal Cleavage Yield (%): 88.4%
  C-terminal Cleavage k: 0.000173 s⁻¹
  C-terminal Cleavage t(½): 66.7 min
[4]
  C-terminal Cleavage Yield (%): 86.7%
  C-terminal Cleavage k: 0.000273 s⁻¹
  C-terminal Cleavage t(½): 42.3 min
[5]
  C-terminal Cleavage Yield (%): 91.3%
  C-terminal Cleavage k: 0.00033 s⁻¹
  C-terminal Cleavage t(½): 35 min
[6]
  C-terminal Cleavage Yield (%): 88.8%
  C-terminal Cleavage k: 0.00047 s⁻¹
  C-terminal Cleavage t(½): 24.6 min
[7]
  C-terminal Cleavage Yield (%): 57.8%
  C-terminal Cleavage k: 6e-05 s⁻¹
  C-terminal Cleavage t(½): 193 min
[8]
  C-terminal Cleavage Yield (%): 89.4%
  C-terminal Cleavage k: 0.000483 s⁻¹
  C-terminal Cleavage t(½): 23.9 min
[9]
  C-terminal Cleavage Yield (%): 85.6%
  C-terminal Cleavage k: 0.00087 s⁻¹
  C-terminal Cleavage t(½): 13.3 min
[10]
  C-terminal Cleavage Yield (%): 87.5%
  C-terminal Cleavage k: 0.000573 s⁻¹
  C-terminal Cleavage t(½): 20.1 min
[11]
  C-terminal Cleavage Yield (%): 83.6%
  C-terminal Cleavage k: 0.000683 s⁻¹
  C-terminal Cleavage t(½): 16.9 min
[12]
  C-terminal Cleavage Yield (%): 72.6%
  C-terminal Cleavage k: 0.000307 s⁻¹
  C-terminal Cleavage t(½): 37.7 min
[13]
  C-terminal Cleavage Yield (%): 71.1%
  C-terminal Cleavage k: 0.000447 s⁻¹
  C-terminal Cleavage t(½): 25.9 min
[14]
  C-terminal Cleavage Yield (%): 87.3%
  C-terminal Cleavage k: 0.00051 s⁻¹
  C-terminal Cleavage t(½): 22.6 min
[15]
  C-terminal Cleavage Yield (%): 86.7%
  C-terminal Cleavage k: 0.00051 s⁻¹
  C-terminal Cleavage t(½): 22.6 min
[16]
  C-terminal Cleavage Yield (%): 94.1%
  C-terminal Cleavage k: 0.00028 s⁻¹
  C-terminal Cleavage t(½): 41.3 min
[17]
  C-terminal Cleavage Yield (%): 86.2%
  C-terminal Cleavage k: 0.000127 s⁻¹
  C-terminal Cleavage t(½): 91.2 min
[18]
  C-terminal Cleavage Yield (%): 69.3%
  C-terminal Cleavage k: 0.000273 s⁻¹
  C-terminal Cleavage t(½): 42.3 min
[19]
  C-terminal Cleavage Yield (%): 75.8%
  C-terminal Cleavage k: 0.000357 s⁻¹
  C-terminal Cleavage t(½): 32.4 min
[20]
  C-terminal Cleavage Yield (%): 75.2%
  C-terminal Cleavage k: 0.000137 s⁻¹
  C-terminal Cleavage t(½): 84.5 min
